# Test results published in patent CN117043185A (NUMAB INNOVATION AG, dated 2023).
# B1: PRO2062 (scFv, V domains shown)
# VH: QSQLVESGGGLVQPGGSLRLSCAVSGLSLSRNAMSWVRQAPGKGLEWIGIILTSGSTYYASWAKGRFTISKDNSKNTVYLQMNSLRAEDTAVYFCVRGIASSSLKSFWGQGTLVTVSS
# VL: AQQLTQSPSSLSASVGDRVTITCQASQNVWNNNYLSWFQQKPGKPPKLLIVTASTLASGVSSRFSGSGSGTDFTLTISSLQPEDFATYYCAGGFSGEIRAFGTGTKVTVLG
# B2: PRO2271 (scFv, V domains shown)
# VH: QSQLVESGGGLVQPGGSLRLSCAVSGIDLSRNAMSWVRQAPGKGLEWIGIILTSGSTYYASWAKGRFTISKTSTTLDLQMNSLRAEDTAVYFCVRGIASSSLKSFWGQGTLVTVSS
# VL: B1 VL
# B3: PRO2060 (scFv, V domains shown)
# VH: QSQVVESGGGLVQPGGSLRLSCAVSGFDLSSYAVSWVRQAPGKGLEWIGIIYPRANTYYASWAKGRFTISKDNSKNTVYLQMNSLRAEDTAVYFCARDRYDSGAYLYTTYFNLWGQGTLVTVSS
# VL: DVQMTQSPSSLSASVGDRVTITCRASENIYSGLAWYQQKPGKPPKLLIYRASTLASGVSSRFSGSGSGTDFTLTISSLQPEDFATYYCQGGYYSSSSTYIAFGTGTKVTVLG
# Target: T1, human ROR1 expressed on cells (MDA-MB-231, JIMT-1, CLL patient cells) (human, UniProt Q01973 30-937)
# T1 construct: whole, on cells; also called hROR1; plasma-membrane human ROR1
# Assay: flow cytometry on MDA-MB-231 cells
# T1 sequence (Q01973 30-937): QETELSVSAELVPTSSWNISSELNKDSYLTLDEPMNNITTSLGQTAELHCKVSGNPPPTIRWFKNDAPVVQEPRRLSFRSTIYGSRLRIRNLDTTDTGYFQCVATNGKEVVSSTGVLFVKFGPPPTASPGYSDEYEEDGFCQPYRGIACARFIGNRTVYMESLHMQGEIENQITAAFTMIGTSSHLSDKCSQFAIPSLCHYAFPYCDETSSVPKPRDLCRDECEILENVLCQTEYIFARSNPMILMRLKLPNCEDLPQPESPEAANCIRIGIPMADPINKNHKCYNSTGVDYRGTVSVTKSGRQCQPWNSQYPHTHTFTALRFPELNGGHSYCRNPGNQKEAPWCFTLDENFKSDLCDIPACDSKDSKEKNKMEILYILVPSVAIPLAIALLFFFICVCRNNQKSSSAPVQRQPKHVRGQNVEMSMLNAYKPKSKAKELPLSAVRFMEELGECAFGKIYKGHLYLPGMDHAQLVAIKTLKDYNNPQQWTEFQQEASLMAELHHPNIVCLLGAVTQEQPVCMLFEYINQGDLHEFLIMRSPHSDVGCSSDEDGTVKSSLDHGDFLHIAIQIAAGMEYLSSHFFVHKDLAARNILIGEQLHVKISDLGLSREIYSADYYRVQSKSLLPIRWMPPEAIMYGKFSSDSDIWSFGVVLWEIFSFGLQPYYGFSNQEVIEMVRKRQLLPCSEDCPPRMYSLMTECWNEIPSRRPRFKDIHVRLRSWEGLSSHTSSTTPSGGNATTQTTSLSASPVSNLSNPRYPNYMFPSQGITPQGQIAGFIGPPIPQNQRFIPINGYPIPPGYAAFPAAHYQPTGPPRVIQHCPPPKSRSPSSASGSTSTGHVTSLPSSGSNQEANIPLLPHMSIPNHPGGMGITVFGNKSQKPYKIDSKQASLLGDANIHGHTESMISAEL
binder,measurement,value
B1,fold higher apparent binding affinity than reference Fab PRO2213,~3 fold
B2,fold lower apparent binding affinity than original scFv PRO2062,~2 fold
B3,fold lower apparent binding affinity than reference Fab PRO2213,~3 fold
